Test results published in publication PMC11840039.
Like-named read-outs stand apart in the source and are kept apart here.

What was measured:
Experiment in all cases: cryo-EM structure
[1] = target: Human Slo1 (hSlo1), BK channel α subunit, residues 1-1056 (human)
[2] = target: Human Slo1 (hSlo1), BK channel α subunit, residues 1-1056 (human); remark: listed apart in the source
[3] = target: Human Slo1 (hSlo1), BK channel α subunit, residues 1-1056 (human); remark: listed apart in the source
[4] = target: Human Slo1 (hSlo1), BK channel α subunit, residues 1-1056 (human); remark: listed apart in the source

Measured: stoichiometry N

Human Slo1 (hSlo1), BK channel α subunit, residues 1-1056 (natural protein)
4: all assays above
